This test concerns the target Glutathione peroxidase 4 (GPX4), endogenous in OS-RC-2 cells (Homo sapiens, OS-RC-2 cells, UniProt P36969). Nature of the test: pull-down.

B1: 4C-R10 (nanobody 4C fused at its C-terminus through an SGSGSG linker to the arginine-rich R10 cell-penetrating peptide) (VHH)
VHH: EVQLEESGGGSVQAGGSLRLSCAAPGDTSSRYYMGWFRQAPGKEREGVAGFSTGLGRTTYADSVKGRFTISQDNAKNTIYLQMNSLKVEDTAMYYCATGRAWAAGSPMYGPFDSRRYNYWGQGTQVTVSS
For the molecule B1, the binding result is on record as “binds”.

(Values after paper PMC11575642 (Chemical Science, 2024).)
